This is an account of results in US11311610B2, “Immune-modulating agents and uses therefor” (UNIVERSITY OF TECHNOLOGY SYDNEY, priority 2010, dated 2022).

Test [1] concerns interaction of LPS with LPS-binding protein (LBP). Description: Assay for the interaction of LPS with LBP (ELISA). Set-up: species or system mouse. Conditions: 5 μg/well, 1 h before 10% sera; ELISA with anti-LBP. Here is the method: (§1) FIG. 9 is a graphical representation showing LPS neutralization by FhHDM-1. The ability of FhHDM-1 (Δ), FhHDM-1 p1 (●) or FhHDM-1 p3 (▪) to bind to LPS was investigated by (A) incubating a range of concentrations of proteins (0.02-2 μg/well) in an LPS-coated (100 ng/well) microtitre plate. Bound peptides were detected by ELISA using rabbit anti-FhHDM-1 as a primary antibody. (B) FhHDM-1 or derived peptides (0.1 μg) were incubated in the presence of LPS (0.05-5 μg/well) and bound peptides measured as described above. Binding of peptides to the LPS-immobilized plates was expressed as a percentage of that measured for 2 μg (for panel A) or 0.1 μg (for panel B) of FhHDM-1. Data are the means±SD from three separate experiments. (C) FhHDM-1 and FhHDM-1 p3 but not FhHDM-1 p1 reduced the interaction between LPS and LBP as effectively as LL-37. LPS-coated microtitre plates were incubated with 5 μg/well of LL-37, FhHDM-1 or derived peptides for 1 h prior to the addition of 10% human sera in PBS. Interaction of LBP with LPS was measured by ELISA using an anti-LBP primary antibody and expressed as a percentage of that detected for 10% sera in the absence of added peptides. Data are the mean±SD of three separate experiments. Statistical significance was calculated using the student t-test and represent a comparison to the binding of 10% sera to immobilized LPS. (D) Binding of FITC-conjugated LPS to RAW264.7 cells was inhibited by LL-37, FhHDM-1 and peptides. […] The binding of FITC-LPS was analyzed by flow cytometry. LPS binding was expressed as a percentage of the mean fluorescence obtained for the addition of FITC-LPS to cells in the absence of peptides. […] Two hours later, sera was collected and serum levels of TNF and (F) IL-10 measured by ELISA. (G) Peritoneal macrophages were isolated, cultured unstimulated in media overnight and then levels of TNF and (H) IL-10 in the culture measured by ELISA. […]
The ability of FhHDM-1 and derived peptides to block the interaction of LPS with LPB was assessed by ELISA using an anti-LBP primary antibody. […]

A short description of another test: LPS-binding ELISA. Also noted: species or system E. coli. As to conditions: for binding to immobilised LPS: 0.02-2 μg/well on LPS-coated plate (100 ng/well). How it is done:
as §1
The ability of FhHDM-1 and derived peptides to bind LPS from E. coli 0111:B4 was determined by ELISA using rabbit anti-FhHDM-1 as a primary antibody (FIG. 9A). […]
A general note: An ELISA detects its analyte on a solid surface through an enzyme-linked reagent.

In a further test the test system is RAW264.7 cells. The test can be described thus: Binding of FITC-conjugated LPS to RAW 264.7 cells (flow cytometry). Type of test: cell-based, murine. Conditions: 0.1-10 μg/mL, 20 min at 4° C. Here is the method:
as §1
The effect of FhHDM-1 and derived peptides on the binding of FITC-LPS to CD14+ cells was determined by flow cytometry of the murine macrophage cell line RAW264.7. […]
For orientation: In flow cytometry, cells or beads pass a laser one at a time.

Take “KARDRAMAYLAKDNLGEKITEVITILLNRL (FhHDM-1 peptide 1 comprising a truncated amphipathic helix contained in FhHDM-1) [FhHDM-1 p1, peptide in which the amphipathic helix is truncated]”: in test [1], the “interaction between LPS and LBP” value was “did not block”. Also, in the test “LPS-binding ELISA”, the “binding to immobilised LPS” value is given as “did not bind to LPS”. Also, the “binding of FITC-LPS to RAW264.7 macrophages” value in the test with RAW264.7 cells was “reduced binding of FITC-LPS to the cells in a dose-dependent manner albeit to a lesser extent”.

B1: FhHDM-1: 90-residue polypeptide from F. hepatica, Helminth Defense Molecule-1 (SEQ ID NO:24); recombinant form minus N-terminal signal peptide, expressed in E. coli (protein, listed as Fasciola hepatica)
chain: MRFIVLLCLAEVLLAAYVEARPSEESREKLRESGRKMVKALRDAVTKAYEKARDRAMAYLAKDNLGEKITEVITILLNRLTDRLEKYAGN
For B1, the “interaction between LPS and LBP” value in test [1] is “significantly reduced”. The “binding to free LPS in solution (competition with immobilised LPS)” value in the test “LPS-binding ELISA” (0.1 μg/well with LPS 0.05-5 μg/well) is given as “bound to free LPS in solution”. Moreover, the “binding to immobilised LPS” value in the test “LPS-binding ELISA” is “bound to LPS in a concentration-dependent manner”. The “binding of FITC-LPS to RAW264.7 macrophages” value in the test on RAW264.7 cells is recorded as “reduced binding of FITC-LPS to the cells in a dose-dependent manner albeit to a lesser extent”.
